Source: article PMC2171992 (The Journal of Cell Biology, 2004)

Columns and labels:
muscle actin [1] = target: T1, muscle actin (UniProt P68135 1-377, labeled with pyrene); assay: seeded actin assembly kinetics
muscle actin [2] = target: T1, muscle actin; assay: apparent critical concentration for actin polymerization at steady state
muscle actin [3] = target: T1, muscle actin; assay: as above; remark: listed apart in the source

Binder | Kd (muscle actin [1]) [nM] | koff (muscle actin [1]) [s⁻¹] | kon (muscle actin [1]) [M⁻¹ s⁻¹] | Kd (muscle actin [2]) [nM] | Kd (muscle actin [3]) [nM]
Cap1Δ(239–268)/Cap2Δ(264–287) (complex) chain 1: MSSSKFEEVINKIINDSPPGELREVYDDLIKITSENSKNTILDAIENYNVQNCIPIEVNGNSVIISKYNKEGAKFFDPVNSVIFSVNHLERKGLDIEPYEFTHAKIEKGQLKELHDKLHEYLLQSFPGDVSFAVYPVPEEISKISIIIVSTKYNPNNFWNGHWRSSYIYDLETRELSGQISTQVHYYEDGNVSFQSGKDINQSNVDDVVCTIRDIETNFENDLDLSFFDLNEKQFKAL chain 2: MSDAQFDAALDLLRRLNPTTLQENLNNLIELQPNLAQDLLSSVDVPLSTQKDSADSNREYLCCDYNRDIDSFRSPWSNTYYPELSPKDLQDSPFPSAPLRKLEILANDSFDVYRDLYYEGGISSVYLWDLNEEDFNGHDFAGVVLFKKNQSDHSNWDSIHVFEVTTSPSSPDSFNYRVTTTIILHLDKTKTDQNSHMMLSGNLTRQTEKDIAIDMSRPLDVIFTSHVANLGSLIEDIESQMRNLLETVYFEKTRDIFHQTKNA | 33400 | 0.012 | 370 |  | 
Cap1(Δ239–268)/Cap2(Δ261–287) (complex) chain 1: MSSSKFEEVINKIINDSPPGELREVYDDLIKITSENSKNTILDAIENYNVQNCIPIEVNGNSVIISKYNKEGAKFFDPVNSVIFSVNHLERKGLDIEPYEFTHAKIEKGQLKELHDKLHEYLLQSFPGDVSFAVYPVPEEISKISIIIVSTKYNPNNFWNGHWRSSYIYDLETRELSGQISTQVHYYEDGNVSFQSGKDINQSNVDDVVCTIRDIETNFENDLDLSFFDLNEKQFKAL chain 2: MSDAQFDAALDLLRRLNPTTLQENLNNLIELQPNLAQDLLSSVDVPLSTQKDSADSNREYLCCDYNRDIDSFRSPWSNTYYPELSPKDLQDSPFPSAPLRKLEILANDSFDVYRDLYYEGGISSVYLWDLNEEDFNGHDFAGVVLFKKNQSDHSNWDSIHVFEVTTSPSSPDSFNYRVTTTIILHLDKTKTDQNSHMMLSGNLTRQTEKDIAIDMSRPLDVIFTSHVANLGSLIEDIESQMRNLLETVYFEKTRDIFHQT |  |  |  | ≥ 100000 | 
wild-type yeast capping protein (Cap1/Cap2) (complex) chain 1: MSSSKFEEVINKIINDSPPGELREVYDDLIKITSENSKNTILDAIENYNVQNCIPIEVNGNSVIISKYNKEGAKFFDPVNSVIFSVNHLERKGLDIEPYEFTHAKIEKGQLKELHDKLHEYLLQSFPGDVSFAVYPVPEEISKISIIIVSTKYNPNNFWNGHWRSSYIYDLETRELSGQISTQVHYYEDGNVSFQSGKDINQSNVDDVVCTIRDIETNFENDLDLSFFDLNEKQFKALRRRLPVTRSKINWGSAIGSYRLGKNAAEGK chain 2: MSDAQFDAALDLLRRLNPTTLQENLNNLIELQPNLAQDLLSSVDVPLSTQKDSADSNREYLCCDYNRDIDSFRSPWSNTYYPELSPKDLQDSPFPSAPLRKLEILANDSFDVYRDLYYEGGISSVYLWDLNEEDFNGHDFAGVVLFKKNQSDHSNWDSIHVFEVTTSPSSPDSFNYRVTTTIILHLDKTKTDQNSHMMLSGNLTRQTEKDIAIDMSRPLDVIFTSHVANLGSLIEDIESQMRNLLETVYFEKTRDIFHQTKNAAIASSAEEANKDAQAEVIRGLQSL | 1.2 | 0.00156 | 1.16e+06 |  | 4
Cap1 (R239A)/Cap2 (complex) chain 1: MSSSKFEEVINKIINDSPPGELREVYDDLIKITSENSKNTILDAIENYNVQNCIPIEVNGNSVIISKYNKEGAKFFDPVNSVIFSVNHLERKGLDIEPYEFTHAKIEKGQLKELHDKLHEYLLQSFPGDVSFAVYPVPEEISKISIIIVSTKYNPNNFWNGHWRSSYIYDLETRELSGQISTQVHYYEDGNVSFQSGKDINQSNVDDVVCTIRDIETNFENDLDLSFFDLNEKQFKALARRLPVTRSKINWGSAIGSYRLGKNAAEGK chain 2: MSDAQFDAALDLLRRLNPTTLQENLNNLIELQPNLAQDLLSSVDVPLSTQKDSADSNREYLCCDYNRDIDSFRSPWSNTYYPELSPKDLQDSPFPSAPLRKLEILANDSFDVYRDLYYEGGISSVYLWDLNEEDFNGHDFAGVVLFKKNQSDHSNWDSIHVFEVTTSPSSPDSFNYRVTTTIILHLDKTKTDQNSHMMLSGNLTRQTEKDIAIDMSRPLDVIFTSHVANLGSLIEDIESQMRNLLETVYFEKTRDIFHQTKNAAIASSAEEANKDAQAEVIRGLQSL | 176 | 0.0275 | 156000 |  | 400

The remaining binders from weak to strong by Kd (muscle actin [1]), led by results:

Kd (muscle actin [1]) [nM] | koff (muscle actin [1]) [s⁻¹] | kon (muscle actin [1]) [M⁻¹ s⁻¹] | Kd (muscle actin [2]) [nM] | Kd (muscle actin [3]) [nM] | Binder
91 | 0.0259 | 300000 |  | 250 | Cap1 (W251A)/Cap2 (complex) chain 1: MSSSKFEEVINKIINDSPPGELREVYDDLIKITSENSKNTILDAIENYNVQNCIPIEVNGNSVIISKYNKEGAKFFDPVNSVIFSVNHLERKGLDIEPYEFTHAKIEKGQLKELHDKLHEYLLQSFPGDVSFAVYPVPEEISKISIIIVSTKYNPNNFWNGHWRSSYIYDLETRELSGQISTQVHYYEDGNVSFQSGKDINQSNVDDVVCTIRDIETNFENDLDLSFFDLNEKQFKALRRRLPVTRSKINAGSAIGSYRLGKNAAEGK chain 2: MSDAQFDAALDLLRRLNPTTLQENLNNLIELQPNLAQDLLSSVDVPLSTQKDSADSNREYLCCDYNRDIDSFRSPWSNTYYPELSPKDLQDSPFPSAPLRKLEILANDSFDVYRDLYYEGGISSVYLWDLNEEDFNGHDFAGVVLFKKNQSDHSNWDSIHVFEVTTSPSSPDSFNYRVTTTIILHLDKTKTDQNSHMMLSGNLTRQTEKDIAIDMSRPLDVIFTSHVANLGSLIEDIESQMRNLLETVYFEKTRDIFHQTKNAAIASSAEEANKDAQAEVIRGLQSL
8 | 0.017 | 2.1e+06 |  | 25 | Cap1/Cap2Δ(264–287) (complex) chain 1: MSSSKFEEVINKIINDSPPGELREVYDDLIKITSENSKNTILDAIENYNVQNCIPIEVNGNSVIISKYNKEGAKFFDPVNSVIFSVNHLERKGLDIEPYEFTHAKIEKGQLKELHDKLHEYLLQSFPGDVSFAVYPVPEEISKISIIIVSTKYNPNNFWNGHWRSSYIYDLETRELSGQISTQVHYYEDGNVSFQSGKDINQSNVDDVVCTIRDIETNFENDLDLSFFDLNEKQFKALRRRLPVTRSKINWGSAIGSYRLGKNAAEGK chain 2: MSDAQFDAALDLLRRLNPTTLQENLNNLIELQPNLAQDLLSSVDVPLSTQKDSADSNREYLCCDYNRDIDSFRSPWSNTYYPELSPKDLQDSPFPSAPLRKLEILANDSFDVYRDLYYEGGISSVYLWDLNEEDFNGHDFAGVVLFKKNQSDHSNWDSIHVFEVTTSPSSPDSFNYRVTTTIILHLDKTKTDQNSHMMLSGNLTRQTEKDIAIDMSRPLDVIFTSHVANLGSLIEDIESQMRNLLETVYFEKTRDIFHQTKNA
7.8 | 0.0163 | 2.09e+06 |  | 25 | Cap1/Cap2Δ(261–287) (complex) chain 1: MSSSKFEEVINKIINDSPPGELREVYDDLIKITSENSKNTILDAIENYNVQNCIPIEVNGNSVIISKYNKEGAKFFDPVNSVIFSVNHLERKGLDIEPYEFTHAKIEKGQLKELHDKLHEYLLQSFPGDVSFAVYPVPEEISKISIIIVSTKYNPNNFWNGHWRSSYIYDLETRELSGQISTQVHYYEDGNVSFQSGKDINQSNVDDVVCTIRDIETNFENDLDLSFFDLNEKQFKALRRRLPVTRSKINWGSAIGSYRLGKNAAEGK chain 2: MSDAQFDAALDLLRRLNPTTLQENLNNLIELQPNLAQDLLSSVDVPLSTQKDSADSNREYLCCDYNRDIDSFRSPWSNTYYPELSPKDLQDSPFPSAPLRKLEILANDSFDVYRDLYYEGGISSVYLWDLNEEDFNGHDFAGVVLFKKNQSDHSNWDSIHVFEVTTSPSSPDSFNYRVTTTIILHLDKTKTDQNSHMMLSGNLTRQTEKDIAIDMSRPLDVIFTSHVANLGSLIEDIESQMRNLLETVYFEKTRDIFHQT
